Measured values published in publication PMC7911018, “Effect of Humanizing Mutations on the Stability of the Llama Single-Domain Variable Region” (Biomolecules, 2021).

Target: T1, HER2 ectodomain-Fc (96 kDa) (Homo sapiens, UniProt P04626)
T1 construct: human epidermal growth factor receptor 2 (HER2), ectodomain; also called extracellular domain of HER2; human epidermal growth factor receptor 2
Test: SPR; Biacore T100, 25 °C; HER2 ectodomain-Fc amine-coupled on a CM5 chip at 1270 RU; VHHs injected as analytes at 7 concentrations between 250 and 3.5 nM in 20 mM Hepes, 150 mM NaCl, 3 mM EDTA, 0.005% Tween 20, pH 7.4; 1:1 Langmuir fit
Conditions: both partners purified

binding result: binds
B1: VHH A10 (anti-HER2 nanobody) (VHH)
VHH: DVQLQASGGGFVQPGGSLRLSCAASGATSNISNMGWFRQAPGKEREFVSAISRAESRPLYYADSVKGRFTISRDNSKNTVYLQMNSLRAEDTATYYCAYMPLVRHKAYWGQGTQVTVSS
notes: anti-HER2 VHH from a synthetic library with camelid FW2 hallmarks FERF; also called A10 wt; source: expressed in bacteria, purified (IMAC, SEC)
